Molecular target: recombinant full-length mammalian Tpr (6xHis-Tpr) (not stated (mammalian)) (UniProt P12270)
Assay: ELISA; solid phase binding assay: Maxisorp microtiter plates coated with 25 ng of Tpr or C-Tpr; increasing concentrations of the soluble protein; bound protein detected with primary antibodies and horseradish peroxidase-conjugated secondary antibodies (TMB); apparent Kd from B = Bmax x Y/(Kd + Y); CRM1, NES and RanGTP at equimolar concentrations

Chain of recombinant full-length mammalian Tpr (6xHis-Tpr) (not stated (mammalian)) (P12270 whole entry): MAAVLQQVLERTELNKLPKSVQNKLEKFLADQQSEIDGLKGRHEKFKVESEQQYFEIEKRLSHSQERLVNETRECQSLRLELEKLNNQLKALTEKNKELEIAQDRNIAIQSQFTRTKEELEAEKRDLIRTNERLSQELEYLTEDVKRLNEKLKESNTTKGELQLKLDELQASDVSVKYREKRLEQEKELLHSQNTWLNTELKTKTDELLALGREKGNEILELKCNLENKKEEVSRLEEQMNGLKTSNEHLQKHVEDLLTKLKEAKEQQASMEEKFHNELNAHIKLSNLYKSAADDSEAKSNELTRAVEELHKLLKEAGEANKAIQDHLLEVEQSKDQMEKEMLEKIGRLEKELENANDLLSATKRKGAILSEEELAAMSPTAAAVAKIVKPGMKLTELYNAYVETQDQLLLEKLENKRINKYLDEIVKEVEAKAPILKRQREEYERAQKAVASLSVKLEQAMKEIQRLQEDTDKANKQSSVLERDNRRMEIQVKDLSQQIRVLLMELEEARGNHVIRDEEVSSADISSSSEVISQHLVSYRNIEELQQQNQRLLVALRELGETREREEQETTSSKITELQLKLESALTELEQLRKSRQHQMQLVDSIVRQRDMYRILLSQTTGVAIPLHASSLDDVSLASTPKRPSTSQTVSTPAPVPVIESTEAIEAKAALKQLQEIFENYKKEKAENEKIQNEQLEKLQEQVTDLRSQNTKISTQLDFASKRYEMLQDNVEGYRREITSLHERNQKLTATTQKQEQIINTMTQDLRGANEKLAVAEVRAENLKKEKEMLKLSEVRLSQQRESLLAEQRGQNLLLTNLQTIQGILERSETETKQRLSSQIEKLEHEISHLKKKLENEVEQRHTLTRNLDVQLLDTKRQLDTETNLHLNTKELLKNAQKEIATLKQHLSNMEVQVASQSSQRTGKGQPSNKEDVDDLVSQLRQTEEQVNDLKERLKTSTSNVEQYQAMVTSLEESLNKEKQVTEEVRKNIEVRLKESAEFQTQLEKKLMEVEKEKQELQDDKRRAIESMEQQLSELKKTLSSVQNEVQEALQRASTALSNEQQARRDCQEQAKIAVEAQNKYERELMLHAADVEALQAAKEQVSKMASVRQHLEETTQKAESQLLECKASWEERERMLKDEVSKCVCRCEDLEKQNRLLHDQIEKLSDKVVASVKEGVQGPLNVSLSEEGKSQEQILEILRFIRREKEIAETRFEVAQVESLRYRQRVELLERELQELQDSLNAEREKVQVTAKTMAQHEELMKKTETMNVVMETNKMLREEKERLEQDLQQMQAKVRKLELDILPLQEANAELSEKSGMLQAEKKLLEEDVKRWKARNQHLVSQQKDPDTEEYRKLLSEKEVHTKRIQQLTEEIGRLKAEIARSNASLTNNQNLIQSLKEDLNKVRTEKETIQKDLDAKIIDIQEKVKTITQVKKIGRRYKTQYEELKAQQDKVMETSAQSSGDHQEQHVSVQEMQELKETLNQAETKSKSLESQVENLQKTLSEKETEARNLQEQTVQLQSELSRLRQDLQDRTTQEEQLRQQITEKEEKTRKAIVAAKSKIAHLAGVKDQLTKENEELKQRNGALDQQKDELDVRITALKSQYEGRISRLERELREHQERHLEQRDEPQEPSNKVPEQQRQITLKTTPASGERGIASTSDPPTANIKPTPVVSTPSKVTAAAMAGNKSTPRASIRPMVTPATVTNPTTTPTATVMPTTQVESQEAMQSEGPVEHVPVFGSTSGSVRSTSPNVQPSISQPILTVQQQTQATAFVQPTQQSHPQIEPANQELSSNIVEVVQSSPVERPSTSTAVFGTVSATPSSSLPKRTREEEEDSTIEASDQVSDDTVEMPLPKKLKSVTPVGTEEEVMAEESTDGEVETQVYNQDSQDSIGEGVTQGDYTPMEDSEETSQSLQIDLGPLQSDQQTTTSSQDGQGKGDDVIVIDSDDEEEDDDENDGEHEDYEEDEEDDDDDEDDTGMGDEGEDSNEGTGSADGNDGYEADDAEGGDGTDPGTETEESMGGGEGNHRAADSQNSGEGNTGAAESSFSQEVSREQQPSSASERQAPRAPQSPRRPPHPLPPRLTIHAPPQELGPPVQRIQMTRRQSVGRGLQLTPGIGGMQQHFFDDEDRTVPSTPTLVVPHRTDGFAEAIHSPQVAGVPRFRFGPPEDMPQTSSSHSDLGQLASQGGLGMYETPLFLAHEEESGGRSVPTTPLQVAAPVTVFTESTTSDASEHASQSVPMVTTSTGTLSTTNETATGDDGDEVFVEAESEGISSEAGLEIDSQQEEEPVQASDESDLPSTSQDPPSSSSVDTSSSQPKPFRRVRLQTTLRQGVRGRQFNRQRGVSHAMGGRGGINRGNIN

Kd: 21.5 nM
Substance: His-importin α (from UniProt P52292 1-529) (natural protein)

— article PMC2770460
